Test [1] has as its target integrin Mac-1 (αMβ2, CD11b/CD18) on HEK293 cells (UniProt P11215). As to the kind of experiment: inhibition of cell adhesion; calcein-labeled Mac-1-HEK293 cells preincubated with 1 μg/ml NIF, added to wells coated with 2 μM Dyn A; heparin 10 μg/ml on the coated wells where named; adhesion without inhibitors = 100 %.
Test [2] has as its target integrin Mac-1 on IC-21 murine macrophages (mouse (endogenous in IC-21)) (UniProt P05555).
Test [3] has as its target D100 fragment of fibrinogen (mol. weight 100,000 Da). Nature of the test: ELISA; solid-phase binding: wells coated with Dyn A or fibrinogen D100 overnight at 4 °C, 3 % BSA; GST-αMI-domains in 20 mM Tris-HCl pH 7.4, 100 mM NaCl, 1 mM MgCl2, 1 mM CaCl2, 0.05 % Tween 20, 5 % glycerol, 1.5 h at 22 °C; detected with anti-GST mAb.

integrin Mac-1 on IC-21 murine macrophages (mouse (endogenous in IC-21)), sequence (P05555 17-1153, chain 1 of 2): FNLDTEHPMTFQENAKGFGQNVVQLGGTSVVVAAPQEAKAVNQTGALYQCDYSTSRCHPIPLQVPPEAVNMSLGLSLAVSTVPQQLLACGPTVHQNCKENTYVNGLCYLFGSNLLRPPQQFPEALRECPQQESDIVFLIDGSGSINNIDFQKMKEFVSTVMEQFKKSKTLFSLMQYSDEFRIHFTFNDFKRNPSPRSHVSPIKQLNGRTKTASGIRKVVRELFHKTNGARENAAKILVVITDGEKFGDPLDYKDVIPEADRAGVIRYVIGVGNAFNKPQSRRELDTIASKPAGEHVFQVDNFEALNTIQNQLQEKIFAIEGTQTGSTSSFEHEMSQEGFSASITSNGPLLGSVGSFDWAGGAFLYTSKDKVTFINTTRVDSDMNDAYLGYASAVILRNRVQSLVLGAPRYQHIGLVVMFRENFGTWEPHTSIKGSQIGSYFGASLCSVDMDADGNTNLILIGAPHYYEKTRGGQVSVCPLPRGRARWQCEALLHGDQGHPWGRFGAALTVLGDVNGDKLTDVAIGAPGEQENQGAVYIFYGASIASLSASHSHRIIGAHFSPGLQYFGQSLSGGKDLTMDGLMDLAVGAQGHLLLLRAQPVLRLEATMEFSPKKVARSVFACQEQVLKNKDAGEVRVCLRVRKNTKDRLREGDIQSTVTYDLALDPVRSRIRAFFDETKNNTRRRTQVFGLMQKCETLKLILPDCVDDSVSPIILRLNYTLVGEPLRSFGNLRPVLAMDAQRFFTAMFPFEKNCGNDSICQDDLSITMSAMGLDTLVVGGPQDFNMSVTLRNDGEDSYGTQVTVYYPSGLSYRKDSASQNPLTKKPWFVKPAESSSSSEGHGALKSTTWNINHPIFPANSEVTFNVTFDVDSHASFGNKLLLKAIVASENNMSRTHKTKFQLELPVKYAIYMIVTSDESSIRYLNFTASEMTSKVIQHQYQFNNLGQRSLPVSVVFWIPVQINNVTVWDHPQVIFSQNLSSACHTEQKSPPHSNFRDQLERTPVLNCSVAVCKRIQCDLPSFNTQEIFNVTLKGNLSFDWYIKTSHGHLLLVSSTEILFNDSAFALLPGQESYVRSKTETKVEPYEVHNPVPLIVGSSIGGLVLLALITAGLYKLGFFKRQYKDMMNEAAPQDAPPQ
integrin Mac-1 on IC-21 murine macrophages (mouse (endogenous in IC-21)), sequence (P11835 24-771, chain 2 of 2, further chain): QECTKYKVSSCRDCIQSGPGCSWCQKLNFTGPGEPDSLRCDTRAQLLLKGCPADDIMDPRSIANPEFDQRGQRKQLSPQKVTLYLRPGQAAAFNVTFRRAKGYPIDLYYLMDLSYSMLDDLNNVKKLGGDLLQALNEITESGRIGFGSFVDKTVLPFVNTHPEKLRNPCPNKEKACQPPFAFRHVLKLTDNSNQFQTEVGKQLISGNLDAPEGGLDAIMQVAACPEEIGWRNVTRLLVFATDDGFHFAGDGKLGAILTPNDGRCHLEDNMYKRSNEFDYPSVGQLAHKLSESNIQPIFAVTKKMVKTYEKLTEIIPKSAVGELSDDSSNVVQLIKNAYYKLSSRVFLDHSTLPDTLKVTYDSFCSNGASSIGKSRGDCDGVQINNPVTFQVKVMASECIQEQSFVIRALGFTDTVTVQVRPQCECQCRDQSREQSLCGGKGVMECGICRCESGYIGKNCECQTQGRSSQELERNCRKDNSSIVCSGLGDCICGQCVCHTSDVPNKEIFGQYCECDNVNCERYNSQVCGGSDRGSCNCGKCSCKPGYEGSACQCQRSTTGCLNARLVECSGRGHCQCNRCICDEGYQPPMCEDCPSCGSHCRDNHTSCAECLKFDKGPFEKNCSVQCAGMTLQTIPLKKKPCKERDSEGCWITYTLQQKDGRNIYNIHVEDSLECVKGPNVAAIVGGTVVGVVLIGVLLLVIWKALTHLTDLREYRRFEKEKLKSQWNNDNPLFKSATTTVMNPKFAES

With “Neutrophil inhibitory factor (NIF) (natural protein)”, in test [1], the percent inhibition of the adhesion of Mac-1-HEK293 cells to Dyn A (2 μM coating) was 65% and the percent inhibition of the adhesion of Mac-1-HEK293 cells to Dyn A (2 μM coating), NIF combined with heparin was greater than 95%. Also, the inhibition by NIF (2 μg/ml) of the phagocytosis of Dyn A-coated beads by IC-21 macrophages (blocked pair: Dyn A and Mac-1) in test [2] was determined as 70%.

As for “GST-αMI-domain, active conformation (residues Glu123-Lys315) (from UniProt P11215 139-331) (domain or fragment)”, in test [3], the fold binding over the nonactive αMI-domain stood at 3.5 fold.

These data come from paper PMC4481117.
